The supplement of paper PMC9732359
± gives the uncertainty stated by the source.

Assay: protein stability index of a GFP-peptide fusion (yeast GPS) (PSI 1-4); higher = more stable; sorted into four equal gates, so the index is relative within each strain
How it was run: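 Peptides tiling yeast proteins in 17-residue segments were fused downstream of GFP, with Cherry expressed from the same plasmid. As a pooled library in yeast, mid-log cultures grown in leucine-free medium were sorted into four equal gates by GFP/Cherry fluorescence ratio. Gate plasmids were PCR-amplified and Illumina-sequenced, and barcodes linked reads to strains. Each peptide received a protein stability index equal to the sum of each gate's read frequency times its gate number.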

Sequence	protein stability index (doa10∆)	protein stability index (pdr5∆)	protein stability index (san1∆)	protein stability index (ubr1∆)
MREITETIAEAKKKVLD [RPO21]	3.5 ± 0.13	3.42 ± 0.09	3.42 ± 0.037	3.24 ± 0.091
MSGRGKGGKGLGKGGAK [HHF1]	3.69 ± 0.29	3.56 ± 0.27	3.61 ± 0.097	3.58 ± 0.074
MSIVFGDKFSEDFRIQF [UBP6]	3.28 ± 0.13	2.71 ± 0.1	2.2 ± 0.092	2.37 ± 0.063
MSLQHEKVTIAPLVLLS [RPN8]	1.19 ± 0.035	1.28 ± 0.032	1.2 ± 0.068	1.21 ± 0.031
MSSDASTYRLEDVLSSF [SSN2]	2.21 ± 0.073	2.38 ± 0.069	1.9 ± 0.1	2.56 ± 0.091
MSVERGIRWELISRLCP [RPT1]	1.73 ± 0.052	2.17 ± 0.048	1.88 ± 0.07	1.93 ± 0.034
MTNLTYFLHLSVFNAEL [YCS4]	1.62 ± 0.061	1.48 ± 0.047	1.87 ± 0.09	1.76 ± 0.073
MTVTKVSLPEGSFKRVK [BRR2]	2.92 ± 0.13	2.72 ± 0.11	3.19 ± 0.076	3.17 ± 0.076
MTYKNKLTVCFDDILKV [MED2]	2.13 ± 0.048	2 ± 0.041	1.9 ± 0.071	2.08 ± 0.033
MVATVKRTIRIKTQQHI [TAF14]	1.62 ± 0.09	1.95 ± 0.053	1.53 ± 0.14	1.56 ± 0.09
MVAYSPIIATYGNRAEQ [SRP68]	2.18 ± 0.085	2.54 ± 0.059	2.7 ± 0.082	2.78 ± 0.073
MVEWLESRSFSPIPFPP [PRP8]	2.52 ± 0.13	2.83 ± 0.17	3.17 ± 0.13	2.9 ± 0.11
MVGQQYSSAPLRTVKEV [RPO21]	–	1.92 ± 0.27	–	–
MVHREFLKLANGGKFSK [RGR1]	3.22 ± 0.08	2.74 ± 0.074	3.14 ± 0.12	2.91 ± 0.07
MVLVQDLLHPTAASEAR [RPS27A]	2.45 ± 0.19	3.37 ± 0.089	3.17 ± 0.19	3.17 ± 0.11
MVMFMHMAKGLYYGSYR [COB]	1.18 ± 0.086	1.16 ± 0.13	1.75 ± 0.22	1.13 ± 0.072
MYGLTMEWPKDMLKYKE [ITC1]	3.53 ± 0.17	3.1 ± 0.28	–	3.07 ± 0.2
NAANVPVENIWADIFAK [RPP1A]	2.2 ± 0.083	2.51 ± 0.11	2.48 ± 0.1	2.34 ± 0.081
NAARKAEASGEAADEAD [RPS9A]	3.29 ± 0.24	3.03 ± 0.29	–	3.47 ± 0.11
NAIFQMESEEVPLTKRY [PCI8]	2.81 ± 0.05	2.82 ± 0.045	2.85 ± 0.038	3.08 ± 0.044
NAISLQLKYDTSVQEKE [YIL149C/MLP2]	2.61 ± 0.13	2.33 ± 0.12	2.75 ± 0.099	2.92 ± 0.07
NAISNTQDDFTTSVDVM [SRP54]	2.79 ± 0.076	2.76 ± 0.061	3.1 ± 0.064	3.2 ± 0.045
NAKKRVFKTHSYRGVDL [RPS15]	2.93 ± 0.053	2.15 ± 0.033	3.16 ± 0.039	3.32 ± 0.047
NALHTERLHELKKLQSD [SMC1]	3.59 ± 0.078	3.38 ± 0.12	3.18 ± 0.095	3.48 ± 0.1
NALYDTLLESNLCKIIE [RPN6]	2.07 ± 0.068	2.48 ± 0.079	2.01 ± 0.065	2.41 ± 0.082
NANEISANTNNTCTIST [SWP82]	2.61 ± 0.041	2.61 ± 0.045	2.9 ± 0.04	2.62 ± 0.031
NANQQFLPFNNSASNNG [SWI1]	3 ± 0.052	2.97 ± 0.052	2.96 ± 0.042	3.02 ± 0.06

Sequence	protein stability index (doa10∆)	protein stability index (pdr5∆)	protein stability index (san1∆)	protein stability index (ubr1∆)
NANTGFSFGGTQTGQNT [YGL172W/NUP49]	3.42 ± 0.14	3.21 ± 0.11	3.23 ± 0.086	3.49 ± 0.11
NAQDIDHFLSMCQNPMQ [FAS1]	3.51 ± 0.23	2.84 ± 0.17	–	–
NARMPGMPNMPGMPNMP [SRP54]	3.34 ± 0.11	3.25 ± 0.085	3.09 ± 0.062	2.94 ± 0.071
NASANSTSFSFNAPATG [YOR098C/NUP1]	2.99 ± 0.049	2.94 ± 0.051	3.05 ± 0.046	2.96 ± 0.033
NASGNKRSGVIETVDDK [ITC1]	2.55 ± 0.09	2.58 ± 0.097	2.27 ± 0.12	2.45 ± 0.052
NASQMGNTGSGGYDNAW [RPB3]	3.36 ± 0.28	3.31 ± 0.17	3.52 ± 0.2	2.5 ± 0.15
NATANATANATANATAE [SNF11]	3.15 ± 0.04	3.33 ± 0.042	3.18 ± 0.042	3.325 ± 0.03
NCIRILADKLENYEGKQ [YIL149C/MLP2]	3 ± 0.3	3.57 ± 0.2	3.22 ± 0.093	2.81 ± 0.19
NDANITSNKEGFNSIWK [SSN2]	3.17 ± 0.077	3.26 ± 0.079	3.3 ± 0.051	3.09 ± 0.069
NDDELNKLLGNVTIAQG [HTA1]	3.31 ± 0.12	3.5 ± 0.12	3.48 ± 0.064	3.34 ± 0.078
NDEKRVKEEYDIWQSRD [YIL149C/MLP2]	3.22 ± 0.062	3.06 ± 0.078	3.25 ± 0.049	3.39 ± 0.084
NDELVELLANKCPLLVE [GRR1]	2.08 ± 0.058	2.13 ± 0.04	2.1 ± 0.078	1.96 ± 0.035
NDIDDLDMELAELDPSL [SEC65]	3.34 ± 0.15	3.23 ± 0.089	3.08 ± 0.077	3.03 ± 0.073
NDIFERIATEASKLAAY [HTB1]	1.93 ± 0.23	1.34 ± 0.11	1.19 ± 0.17	1.34 ± 0.24
NDIHLRFMRFLADRDEF [ECM29]	2.44 ± 0.065	2.24 ± 0.059	2.21 ± 0.16	2.5 ± 0.038
NDKLIVDNDNWVYKTKG [RPN1]	2.81 ± 0.14	2.77 ± 0.18	3.18 ± 0.28	–
NDLRVSLNEKNALHTER [SMC1]	3.11 ± 0.11	3.24 ± 0.096	2.67 ± 0.11	2.81 ± 0.089
NDNEGKHISASIDNDFS [YAR002W/NUP60]	3.05 ± 0.089	3.04 ± 0.071	3.19 ± 0.099	2.92 ± 0.067
NDPAREKFSSFIESIVV [SNF12]	2.78 ± 0.056	2.8 ± 0.058	2.27 ± 0.071	2.77 ± 0.04
NDPNAAVNMTQNIMTLP [MED6]	2.97 ± 0.14	2.95 ± 0.089	2.71 ± 0.08	3.11 ± 0.059
NDVTNKNINIGKHSQEQ [SIR4]	2.26 ± 0.052	2.46 ± 0.047	2.81 ± 0.045	2.5 ± 0.041
NECIASTSNALKVLSGD [SNF12]	2.89 ± 0.059	2.86 ± 0.07	2.86 ± 0.05	2.79 ± 0.062
NEDARAIFNNEFDSDDD [RPN4]	3.09 ± 0.075	2.87 ± 0.096	3.42 ± 0.073	3.41 ± 0.097
NEDLEDGHYIEENSQGN [REC8]	–	3.37 ± 0.27	–	–
NEDQFLEEITQYEHLIK [YDL116W/NUP84]	–	3.02 ± 0.27	–	–
NEEGDWSCIVVENWIID [ITC1]	2.38 ± 0.074	2.48 ± 0.082	2.68 ± 0.12	2.95 ± 0.11
